According to US20240400689A1 (ANTENGENE BIOLOGICS, published 2024):
Where two headings read alike, the source gives them in different places.

T1: human CD276 protein (human, UniProt Q5ZPR3 29-534)
T1 construct: whole, on cells; for SKOV3 and the other cancer lines the protein is the cells' own; also called B7-H3; B7H3
T1 sequence (looked up): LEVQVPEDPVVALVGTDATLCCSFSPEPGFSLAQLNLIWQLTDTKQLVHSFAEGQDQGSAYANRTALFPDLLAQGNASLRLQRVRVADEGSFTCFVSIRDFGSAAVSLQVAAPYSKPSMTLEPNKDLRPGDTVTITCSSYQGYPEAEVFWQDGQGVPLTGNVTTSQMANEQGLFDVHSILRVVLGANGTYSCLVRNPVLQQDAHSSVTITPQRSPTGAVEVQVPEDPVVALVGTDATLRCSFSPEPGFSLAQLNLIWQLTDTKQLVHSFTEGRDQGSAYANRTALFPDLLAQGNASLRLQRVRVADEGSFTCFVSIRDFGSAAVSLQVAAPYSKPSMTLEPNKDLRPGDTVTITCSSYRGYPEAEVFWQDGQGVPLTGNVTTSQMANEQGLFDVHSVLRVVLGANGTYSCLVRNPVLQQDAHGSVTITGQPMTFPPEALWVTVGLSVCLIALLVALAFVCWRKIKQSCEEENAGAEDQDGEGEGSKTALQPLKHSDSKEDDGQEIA

T2: HUMAN B7H3 (Biacore analyte) (human, UniProt Q5ZPR3 29-461, limits assumed)
T2 construct: also called hB7H3
T2 sequence (looked up): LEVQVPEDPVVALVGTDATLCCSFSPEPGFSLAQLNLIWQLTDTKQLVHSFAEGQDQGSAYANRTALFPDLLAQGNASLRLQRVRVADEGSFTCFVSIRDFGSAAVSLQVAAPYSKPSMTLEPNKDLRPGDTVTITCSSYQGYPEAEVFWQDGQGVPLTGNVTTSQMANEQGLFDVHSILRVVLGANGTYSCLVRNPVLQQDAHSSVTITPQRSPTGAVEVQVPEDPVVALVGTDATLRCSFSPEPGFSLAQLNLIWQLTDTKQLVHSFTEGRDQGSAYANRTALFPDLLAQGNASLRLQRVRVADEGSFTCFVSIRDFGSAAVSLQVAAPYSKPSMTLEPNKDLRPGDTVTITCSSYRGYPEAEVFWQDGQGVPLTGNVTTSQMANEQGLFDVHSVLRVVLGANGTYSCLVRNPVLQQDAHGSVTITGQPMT


Legend:
human CD276 protein [1] = target: T1, human CD276 protein; experiment: FACS on SKOV3 cells
Text: Sequences of 31 mouse antibodies from Table 5 were selected to generate and produce human IgG1 chimeric antibodies. The binding affinity of these antibodies and bench mark antibody, Enoblituzumab (see U.S. Pat. No. 8,802,091, MGA271, specifically with a construct designated as hBRCA84D-2) and MGC018 (an antibody-drug-conjugate, in which the mAb MGA017 (human IgG1) is conjugated via a cleavable linker to the prodrug seco-DUocarmycin hydroxyBenzamide Azaindole (DUBA), an alkylating agent that can damage DNA in both dividing and non-dividing cells, thereby causing cell death) with human patient derived ovarian cancer cell line, SKOV3, was determined by FACS analysis.
1. Digested cells using Trypsin (1×); Centrifuged the harvested cells at 300 g for 3 min and discarding the supernatant. […] 2. Washed the cells 2 times with FACS buffer by centrifuging at 300 g for 3 min and discarding the supernatant. [0445] 3. […] Kept the cells in dark for FACS analysis.

human CD276 protein [2] = target: T1, human CD276 protein; experiment: cell-based or functional assay
human CD276 protein [3] = target: T1, human CD276 protein; experiment: cell-based or functional assay; remark: listed apart in the source
[4] = target: T2, HUMAN B7H3 (Biacore analyte); experiment: SPR, Biacore 8K, antibody captured, B7H3 as analyte, 1:1 binding
[5] = target: T2, HUMAN B7H3 (Biacore analyte); experiment: as above; remark: listed apart in the source
human CD276 protein [6] = target: T1, human CD276 protein; experiment: cell-based or functional assay; remark: listed apart in the source

| EC50 (human CD276 protein [1]) [µg/mL] | MFI (Max) (human CD276 protein [1]) | EC50 of antibody induced ADCC effect on SKOV3 (human CD276 protein [2]) [µg/mL] | Kd [4] [nM] | koff [4] [s⁻¹] | kon [4] [M⁻¹ s⁻¹] | Kd [5] [nM] | koff [5] [s⁻¹] | kon [5] [M⁻¹ s⁻¹] | EC50 of antibody induced CDC effect (human CD276 protein [6]) [nM] | Binder | IC50 of indirect ADC cytotoxicity on SKOV3 (human CD276 protein [3]) [nM] | Top cytotoxicity (%), CDC (human CD276 protein [6]) [%] |
| --- | --- | --- | --- | --- | --- | --- | --- | --- | --- | --- | --- | --- |
| 1.77 | 3080 | 0.876 |  |  |  |  |  |  |  | 13-E4-G9-A4 (human IgG1 chimeric antibody) (antibody, V domains shown, human IgG1 chimeric antibody of the mouse clone) VH: EVMLVESGGGLVKPGGSLKFSCAASGFTFITYAMSWVRQTPEKRLEWVATISGGGIDTYYPDSVKGRFTISRDNAKNTLYLQVNSLRSEDTAMYYCTRQGSQGWGAMDYWGQGTSVTVSS VL: QIVLTQSPPIMSASPGERVTMTCRASSRVSFMHWYQQKSGTSPRRWIYETSKLASGVPDRFSGSVSGTSYSLTISSMEAEDAATYYCQQWSSNPLTFGAGTKLELK | 0.021 |  |
|  |  |  | 0.851 | 7.26e-05 | 85300 |  |  |  |  | 10-G6-C4-B2_hVH2-VL1_PTM (antibody, V domains shown, humanized, PTM-optimized antibody from 10-G6-C4-B2) VH: EVQLVESGGGLVQPGGSLRLSCATSGFTLSDYYMSWVRQAPGKGLEWVSFMRNKANAYTTEYSASVRGRFTISRDTSKSTIYLQMNSLRAEDTAVYYCVRDREGRPFAYWGQGTLVTVSS VL: DIVMTQSPDSLAVSLGERATINCKSSQSLLNAINQKNFLTWYQQKPGQPPKLLIYWASTRESGVPDRFSGSGSGTDFTLTISSLQAEDLAVYYCQNDYTYPLTFGQGTKLEIK |  |  |
|  |  |  | 1.35 | 7.12e-05 | 52700 |  |  |  |  | 10-G6-C4-B2_hVH4-VL2_PTM (antibody, V domains shown, humanized, PTM-optimized antibody from 10-G6-C4-B2) VH: EVQLVESGGGLIQPGGSLRLSCATSGFTLSDYYMSWVRQPPGKGLEWVSFMRNKANAYTTEYSASVRGRFTISRDTSKSTIYLQMNSLRAEDTAVYYCVRDREGRPFAYWGQGTLVTVSS VL: DIVMTQSPLSLPVTPGEPASISCKSSQSLLNAINQKNFLTWYLQKPGQSPQLLIYWASTRESGVPDRFSGSGSGTDFTLKISRVEAEDLGVYYCQNDYTYPLTFGQGTKLEIK |  |  |
|  |  |  | 0.0087 | 1.02e-06 | 118000 |  |  |  |  | 10-G6-C4-B2_hVH3-VL3_PTM (antibody, V domains shown, humanized, PTM-optimized antibody from 10-G6-C4-B2) VH: EVQLVESGGGLVQPGGSLRLSCATSGFTLSDYYMSWVRQAPGKGLEWVGFMRNKANAYTTEYSASVRGRFTISRDTSKSSIYLQMNSLKTEDTAVYYCVRDREGRPFAYWGQGTLVTVSS VL: DIQMTQSPSSLSASVGDRVTITCKSSQSLLNAINQKNFLTWYQQKPGKAPKLLIYWASTRESGVPSRFSGSGSGTDFTLTISSLQPEDLATYYCQNDYTYPLTFGQGTKLEIK |  |  |
|  |  |  | 1.73 | 0.000155 | 89600 |  |  |  |  | 10-G6-C4-B2_hVH4-VL1_PTM (antibody, V domains shown, humanized, PTM-optimized antibody from 10-G6-C4-B2) VH: EVQLVESGGGLIQPGGSLRLSCATSGFTLSDYYMSWVRQPPGKGLEWVSFMRNKANAYTTEYSASVRGRFTISRDTSKSTIYLQMNSLRAEDTAVYYCVRDREGRPFAYWGQGTLVTVSS VL: DIVMTQSPDSLAVSLGERATINCKSSQSLLNAINQKNFLTWYQQKPGQPPKLLIYWASTRESGVPDRFSGSGSGTDFTLTISSLQAEDLAVYYCQNDYTYPLTFGQGTKLEIK |  |  |
|  |  |  | 0.0929 | 1.37e-05 | 147000 |  |  |  |  | 10-G6-C4-B2_hVH5-VL1_PTM (antibody, V domains shown, humanized, PTM-optimized antibody from 10-G6-C4-B2) VH: EVQLVESGGGLVQPGRSLRLSCTTSGFTLSDYYMSWVRQAPGKGLEWVGFMRNKANAYTTEYSASVRGRFTISRDTSKSIIYLQMNSLKTEDTAVYYCVRDREGRPFAYWGQGTLVTVSS VL: DIVMTQSPDSLAVSLGERATINCKSSQSLLNAINQKNFLTWYQQKPGQPPKLLIYWASTRESGVPDRFSGSGSGTDFTLTISSLQAEDLAVYYCQNDYTYPLTFGQGTKLEIK |  |  |
|  |  |  | 0.00692 | 1.01e-06 | 146000 |  |  |  |  | 10-G6-C4-B2_hVH5-VL3_PTM (antibody, V domains shown, humanized, PTM-optimized antibody from 10-G6-C4-B2) VH: EVQLVESGGGLVQPGRSLRLSCTTSGFTLSDYYMSWVRQAPGKGLEWVGFMRNKANAYTTEYSASVRGRFTISRDTSKSIIYLQMNSLKTEDTAVYYCVRDREGRPFAYWGQGTLVTVSS VL: DIQMTQSPSSLSASVGDRVTITCKSSQSLLNAINQKNFLTWYQQKPGKAPKLLIYWASTRESGVPSRFSGSGSGTDFTLTISSLQPEDLATYYCQNDYTYPLTFGQGTKLEIK |  |  |
| 2.08 | 3880 | 0.259 |  |  |  | 0.752 | 0.000282 | 375000 |  | 10-B9-D10-A12 (human IgG1 chimeric antibody) (antibody, V domains shown, human IgG1 chimeric antibody of the mouse clone) VH: EVQLQESGPELVRPGVSVKISCKGSGYTFTDYTMHWVKLSHAKSLEWIGVISTYYGNTNYNQKFKGKATLTVDKSSSTAYMELARLTSEDSAIYYCARASYGSGYGPYYWYFDVWGAGTTVTVSS VL: DIQMTQSPASLFASVGETVTITCRASEKIYSYLAWYFQKQGKSPQFLVYNANALAEGVPSRFSGSGSGTQFSLKINSLQPEDFGTYYCQHHYGTPVTFGAGSKLELK | 0.021 |  |
| 0.643 | 2880 | 0.111 |  |  |  | 0.444 | 0.00044 | 990000 |  | 8-C3-E3-F3 (human IgG1 chimeric antibody) (antibody, V domains shown, human IgG1 chimeric antibody of the mouse clone) VH: EVQLVESGGGLVQPGGSLKLSCAASGFTFSNYGLSWVRLTPDKRLEVVATIGSYGGNTYYPDSVKGRFTISRDNAKNTLYLQMSSLKSEDTAIYYCARDIYYGNSEAWFAYWGQGTLVTVSA VL: DIVMTQAAFSNPVTLGTSASISCRSSKSLLHSNGITYLYWYLQKPGQSPQLLIYQMSNLASGVPDRFSSSGSETDFTLRISRVEAEDVGVYYCAQNLELPWTFGGGTKLEIK | 0.012 |  |
| 1.31 | 3180 | 0.0419 |  |  |  | 1.16 | 0.000214 | 185000 | 1.43 | 16-G3-D10-C10 (human IgG1 chimeric antibody) (antibody, V domains shown, human IgG1 chimeric antibody of the mouse clone) VH: QIQLVQSGPELKKPGETVKISCKASGYTFRNYGMNWVKQGPGKDLKWMGWINPYTGEPTYIGDFKGRFAFSLETSANSAYLQINNLNNEDMATYFCARDDGYWYTMDYWGQGTSVTVSS VL: DVVMTQTPPSLPVSLGDQASIPCRSSQSLVHSNGITYLHWYLQKPGQSPKLLIYKVSNRFSGVPDRFSGSGSGTDFTLKISRVEAEDLGVYFCSQSTHVPWTFGGGTKLEIK |  | 93.6 |
| 0.523 | 5540 | 0.0179 |  |  |  |  |  |  |  | 22-E11-C3-F2 (human IgG1 chimeric antibody) (antibody, V domains shown, human IgG1 chimeric antibody of the mouse clone) VH: QIQLVQSGPELKRPGETVKISCKASGYSFTNYGMNWVKQAPGKGLKWMGWINPYTGEPTYADDFKGRFAMSLETSASAAYLQINNLKNEDMATYFCGRDDGYHYTMNYWGQGTSVTVSS VL: DVVMTQPPLSLPVSLGDQASISCRSSQSLIHSNGDTYLHWYLQKPGQSPKLLIYKVSIRFSGVPDRFSGSGSGTDFTLKISRVEAEDLGVYFCSQSTYVPWTFGGGTKLEIK | 0.016 |  |
| 0.385 | 2540 |  |  |  |  | 0.459 | 0.000408 | 889000 | 1.67 | MGC018 (antibody, V domains shown) VH: EVQLVESGGGLVKPGGSLRLSCAASGFTFSSYGMSWVRQAPGKGLEWVATINSGGSNTYYPDSLKGRFTISRDNAKNSLYLQMNSLRAEDTAVYYCARHDGGAMDYWGQGTTVTVSS VL: DIQMTQSPSSLSASVGDRVTITCRASESIYSYLAWYQQKPGKAPKLLVYNTKTLPEGVPSRFSGSGSGTDFTLTISSLQPEDFATYYCQHHYGTPPWTFGQGTRLEIKR | 0.013 | 93.3 |
| 0.941 | 2310 | 0.069 |  |  |  | 0.644 | 0.000416 | 645000 |  | 20-C5-D7-D3 (human IgG1 chimeric antibody) (antibody, V domains shown, human IgG1 chimeric antibody of the mouse clone) VH: EVQLVESGGDLVKPGGSLKLSCAASGFTFRSYGMSWVRQTPDKRLEWVATISGGGNYTYYPDSVKGRFTISRDNAKNTLYLQMSSLKSEDTAMYYCARHEGLPLDYWGQGTTLTVSS VL: DIQMTQSPASLSASVGETVTITCRASENIYSYLAWYQQKQGKSPQLLVYNAKTLAEGVPSRFSGSGSGTQFSLKINSLQPEDFGNFYCQHHYGTPTWTFGGGTKLEIK | 0.007 |  |
